Reference: patent publication US20240158494A1 (Biogen, published 2024)
Substitutions are numbered along the chain they refer to. Names and notes keep the numbering of the source.

B1: TfRANTIBODY-B HC-H4C/LC-L2 (C90V) hIgG1Fab′(1C) (Fab, V domains shown)
VH: QSLVESGGGVVQPGRSLRLSCKASGFSFSNSYWICWVRQAPGKGLEWVGCINTDADSTNYASWARGRFTISKTSSTTVYLQMNSLRAEDTAVYYCARQNNVFDPGYNLWGPGTLVTVSS
VL: ELVLTQSPSTLSASVGDRVTITCRASQNIGSNLAWYQQKPGKAPKLLIYDASKLESGVPSRFSGSGSGTEFTLTISSLQPDDFATYYCQVTVRGGAYGNAFGGGTKVEIKR
notes: also called ANTIBODY-B H4C/L2(C90V); H4C (C90V)/L2
B2: TfRANTIBODY-B HC-H1C/LC-L2 (C90V) hIgG1Fab′(1C) (Fab, V domains shown)
VH: QSLVESGGGVVQPGRSLRLSCAASGFSFSNSYWICWVRQAPGKGLEWVGCINTDADSTNYADSVKGRFTISKDNSKNTVYLQMNSLRAEDTAVYYCARQNNVFDPGYNLWGQGTLVTVSS
VL: B1 VL
notes: also called ANTIBODY-B H1C/L2(C90V)
B3: TfRANTIBODY-B HC-H3C/LC-L2 (C90S) hIgG1Fab′(1C) (Fab, V domains shown)
VH: B2 VH with D62S, S63W, V64A, K65R, V79L
VL: B1 VL with V90S
notes: also called ANTIBODY-B H3C/L2(C90S)
B4: TfRANTIBODY-B HC-H3C/LC-L2 (C90T) hIgG1Fab′(1C) (Fab, V domains shown)
VH: B2 VH with D62S, S63W, V64A, K65R, V79L
VL: B1 VL with V90T
notes: also called ANTIBODY-B H3C/L2(C90T)
B5: TfRANTIBODY-B HC-H3C/LC-L2 (C90V) hIgG1Fab′(1C) (Fab, V domains shown)
VH: B2 VH with D62S, S63W, V64A, K65R, V79L
VL: B1 VL
notes: also called ANTIBODY-B H3C/L2(C90V)
B6: TfR1 ANTIBODY-A HC-H2C hIgG1 Fab′(1C)/LC-L2 hKappa (Fab, V domains shown)
VH: QSLVESGGGLVQPGGSLRLSCAASGIDFSSSGYMCWVRQAPGKGLEWVGCIYTYSSNTYYAASVKGRFTISKTSSTTVYLQMNSLKTEDTAVYYCARGTYGYTGYTYTMGYFSLWGQGTLVTVSS
VL: ELDMTQSPSTLSASVGDRVTITCQASQNINSYLAWYQQKPGKAPKLLIYRASTLASGVPSRFSGSGSGTEFTLTISSLQPDDFATYYCQSYYYSGSSNYNAFGGGTKVEIKR
notes: also called ANTIBODY-A H2C/L2
B7: TfR1 ANTIBODY-A HC-H3C hIgG1 Fab′(1C)/LC-L2 hKappa (Fab, V domains shown)
VH: B6 VH with A22K, A62S, S63W, V64A, T73D, S75K, T76N, T77S, Q117P
VL: B6 VL
notes: also called ANTIBODY-A H3C/L2
B8: TfR1 ANTIBODY-A HC-H4C hIgG1 Fab′(1C)/LC-L2 hKappa (Fab, V domains shown)
VH: B6 VH with A22K, A62S, S63W, V64A, Q117P
VL: B6 VL
notes: also called ANTIBODY-A H4C/L2
B9: TfR1 ANTIBODY-B HC-H1 hIgG1 Fab′(1C)/LC-L2 hKappa (Fab, V domains shown)
VH: B2 VH with C35A, G49A, C50A
VL: B1 VL with V90C
notes: also called ANTIBODY-B H1/L2
B10: TfR1 ANTIBODY-B HC-H3 hIgG1 Fab′(1C)/LC-L2 hKappa (Fab, V domains shown)
VH: B2 VH with C35A, G49A, C50A, D62S, S63W, V64A, K65R, V79L
VL: B1 VL with V90C
notes: also called ANTIBODY-B H3/L2
B11: TfR1 ANTIBODY-B HC-H2 hIgG1 Fab′(1C)/LC-L2 hKappa (Fab, V domains shown)
VH: B1 VH with C35A, G49A, C50A, S62D, W63S, A64V, R65K, T73D, P111Q
VL: B1 VL with V90C
notes: also called ANTIBODY-B H2/L2
B12: TfR1 ANTIBODY-B HC-H0 hIgG1 Fab′(1C)/LC-L2 hKappa (Fab, V domains shown)
VH: QVQLVESGGGVVQPGRSLRLSCAASGFSFSNSYWIAWVRQAPGKGLEWVAAINTDADSTNYADSVKGRFTISRDNSKNTLYLQMNSLRAEDTAVYYCARQNNVFDPGYNLWGQGTLVTVSS
VL: B1 VL with V90C
notes: also called ANTIBODY-B H0/L2
B13: TfR1 ANTIBODY-A HC-H2 hIgG1 Fab′(1C)/LC-L2 hKappa (Fab, V domains shown)
VH: B6 VH with C35A, C50A
VL: B6 VL
notes: heavy chain derived; also called ANTIBODY-A H2/L2
B14: TfR1 ANTIBODY-A HC-H0 hIgG1 Fab′(1C)/LC-L1 hKappa (Fab, V domains shown)
VH: EVQLVESGGGLVQPGGSLRLSCAASGIDFSSSGYMAWVRQAPGKGLEWVGAIYTYSSNTYYAASVKGRFTISRDDSKNSLYLQMNSLKTEDTAVYYCARGTYGYTGYTYTMGYFSLWGQGTLVTVSS
VL: B6 VL with E1D, L2I, D3Q
notes: also called ANTIBODY-A H0/L1
B15: TfR1 ANTIBODY-A HC-H1C hIgG1 Fab′(1C)/LC-L1 hKappa (Fab, V domains shown)
VH: QSLVESGGGLVQPGGSLRLSCAASGIDFSSSGYMCWVRQAPGKGLEWVGCIYTYSSNTYYAASVKGRFTISRDDSKNSLYLQMNSLKTEDTAVYYCARGTYGYTGYTYTMGYFSLWGQGTLVTVSS
VL: B6 VL with E1D, L2I, D3Q
notes: also called ANTIBODY-A H1C/L1
B16: TfR1 ANTIBODY-A HC-H1 hIgG1 Fab′(1C)/LC-L0 hKappa (Fab, V domains shown)
VH: B15 VH with C35A, C50A
VL: B6 VL with E1D, L2I, D3Q, T53S, A55E
notes: also called ANTIBODY-A H1/L0
B17: TfRANTIBODY-A HC-H3(HA) hIgG1Fab′(1C)/LC-L0 hKappa (Fab, V domains shown)
VH: QSLVESGGGLVQPGGSLRLSCKASGIDFSSSGYMHWVRQAPGKGLEWVGAIYTYSSNTYYASWAKGRFTISKDSKNSVYLQMNSLKTEDTAVYYCARGTYGYTGYTYTMGYFSLWGPGTLVTVSS
VL: B6 VL with E1D, L2I, D3Q, T53S, A55E
notes: also called ANTIBODY-A H3(HA)/L0; H3C(HA)/L0
B18: TfRANTIBODY-A HC-H3(SR) hIgG1Fab′(1C)/LC-L0 hKappa (Fab, V domains shown)
VH: B17 VH with H35S, A50R
VL: B6 VL with E1D, L2I, D3Q, T53S, A55E
notes: also called ANTIBODY-A H3(SR)/L0
B19: TfRANTIBODY-A HC-H3(SV) hIgG1Fab′(1C)/LC-L0 hKappa (Fab, V domains shown)
VH: B17 VH with H35S, A50V
VL: B6 VL with E1D, L2I, D3Q, T53S, A55E
notes: also called ANTIBODY-A H3(SV)/L0
B20: TfRANTIBODY-A HC-H3(SY) hIgG1Fab′(1C)/LC-L0 hKappa (Fab, V domains shown)
VH: B17 VH with H35S, A50Y
VL: B6 VL with E1D, L2I, D3Q, T53S, A55E
notes: also called ANTIBODY-A H3(SY)/L0
B21: TfRANTIBODY-B HC-H1(HA) hIgG1Fab′(1C/LC-L2 hKappa (Fab, V domains shown)
VH: B2 VH with C35H, G49A, C50A
VL: B1 VL with V90C
notes: also called ANTIBODY-B H1(HA)/L2
B22: TfRANTIBODY-B HC-H1(SR) hIgG1Fab′(1C)/LC-L2 hKappa (Fab, V domains shown)
VH: B2 VH with C35S, G49A, C50R
VL: B1 VL with V90C
notes: also called ANTIBODY-B H1(SR)/L2
B23: TfRANTIBODY-B HC-H1(SV) hIgG1Fab′(1C)/LC-L2 hKappa (Fab, V domains shown)
VH: B2 VH with C35S, G49A, C50V
VL: B1 VL with V90C
notes: also called ANTIBODY-B H1(SV)/L2
B24: TfRANTIBODY-B HC-H1(SY) hIgG1Fab′(1C)/LC-L2 hKappa (Fab, V domains shown)
VH: B2 VH with C35S, G49A, C50Y
VL: B1 VL with V90C
notes: also called ANTIBODY-B H1(SY)/L2

These binders were tested against T1, cynomolgus monkey transferrin receptor 1 (TfR1), full length, expressed on cells (cynomolgus monkey, UniProt Q5RDH6 1-760 (Pongo abelii entry)) (assay: FACS on Ba/F3 cells, Fab supernatant).
T1 construct: also called cyno TfR1; cyTfR

| Binder | EC50 [nM] |
| --- | --- |
| B1 | 2.2 |
| B2 | 2.9 |
| B3 | 6.2 |
| B4 | 6.3 |
| B5 | 3.2 |

The binders below were run against T2, human transferrin receptor 1 (TfR1), full length, expressed on cells (human, UniProt P02786 1-760) (assay: FACS on Ba/F3 cells, Fab supernatant).
T2 construct: also called human TfR1; huTfR

| Binder | EC50 [nM] |
| --- | --- |
| B1 | 4.9 |
| B2 | 10.7 |
| B3 | 16.8 |
| B4 | 15.9 |
| B5 | 7.7 |

These binders were tested against T3, recombinant human TfR1 extracellular domain, His-tagged (human, UniProt P02786 89-760) (assay: SPR, TfR1 ECD-His captured, Fab injected, 1:1 fit).
T3 construct: also called Human TfR1 ECD; human TfR1 ECD-His

| Binder | Kd [nM] | koff [s⁻¹] | kon [M⁻¹ s⁻¹] |
| --- | --- | --- | --- |
| B6 | 2.2 | 0.00213 | 952000 |
| B7 | 2.4 | 0.00215 | 886000 |
| B8 | 1.6 | 0.00148 | 931000 |
| B9 | 47.8 | 0.00453 | 94700 |
| B10 | 65 | 0.00595 | 91500 |
| B11 | 39.4 | 0.00328 | 83200 |

What follows are binders tested against T4, recombinant cynomolgus monkey TfR1 extracellular domain, His-tagged (cynomolgus monkey, UniProt Q5RDH6 87-760 (Pongo abelii entry)) (assay: SPR, TfR1 ECD-His captured, Fab injected, 1:1 fit).
T4 construct: also called Cyno TfR1 ECD; cyno TfR1 ECD-His

| Binder | Kd [nM] | koff [s⁻¹] | kon [M⁻¹ s⁻¹] |
| --- | --- | --- | --- |
| B6 | 7.8 | 0.0137 | 1.76e+06 |
| B7 | 8.3 | 0.0178 | 2.16e+06 |
| B8 | 6.2 | 0.0134 | 2.16e+06 |
| B9 | 12 | 0.00105 | 88300 |
| B10 | 12 | 0.00172 | 143000 |
| B11 | 8.7 | 0.00113 | 129000 |

Target: T1, cynomolgus monkey transferrin receptor …
Experiment: FACS on Ba/F3 cells, Fab supernatant
Remark: another data set of the same source

| Binder | EC50 [nM] |
| --- | --- |
| B9 | 4.9 |
| B10 | 5.7 |
| B11 | 7.7 |
| B12 | 44.5 |

Target: T2, human transferrin receptor 1 (TfR1), …
Experiment: FACS on Ba/F3 cells, Fab supernatant
Remark: another data set of the same source

| Binder | EC50 [nM] |
| --- | --- |
| B9 | 9.6 |
| B10 | 15.7 |
| B11 | 10.2 |
| B12 | 168 |

Target: T1, cynomolgus monkey transferrin receptor …
Experiment: FACS on Ba/F3 cells, Fab supernatant
Remark: another data set of the same source

| Binder | EC50 [nM] |
| --- | --- |
| B13 | > 52 |
| B6 | 7.4 |
| B7 | 10.4 |
| B8 | 3.3 |
| B14 | > 107 |
| B15 | ~26 |
| B16 | > 176 |

Target: T2, human transferrin receptor 1 (TfR1), …
Experiment: FACS on Ba/F3 cells, Fab supernatant
Remark: another data set of the same source

| Binder | EC50 [nM] |
| --- | --- |
| B13 | 6.5 |
| B6 | 2.8 |
| B7 | 1.6 |
| B8 | 1.6 |
| B14 | ~19 |
| B15 | 3.6 |
| B16 | 25 |

Target: T1, cynomolgus monkey transferrin receptor …
Experiment: FACS on Ba/F3 cells, Fab supernatant
Remark: another data set of the same source

| Binder | EC50 [nM] | binding result |
| --- | --- | --- |
| B17 | ~30 | – |
| B18 | – | no binding |
| B19 | – | no binding |
| B20 | – | no binding |
| B21 | 7.1 | – |
| B22 | – | no binding |
| B23 | 30 | – |
| B24 | > 55 | – |

Target: T2, human transferrin receptor 1 (TfR1), …
Experiment: FACS on Ba/F3 cells, Fab supernatant
Remark: another data set of the same source

| Binder | EC50 [nM] | binding result |
| --- | --- | --- |
| B17 | 16.8 | – |
| B18 | > 290 | – |
| B19 | > 150 | – |
| B20 | > 125 | – |
| B21 | 18.2 | – |
| B22 | – | no binding |
| B23 | 98.6 | – |
| B24 | 113 | – |
